For the experiment, the target named is mutant voltage gated potassium channel (Kv1.3). Description: cell-based or functional assay.

Consider “Margatoxin (from UniProt P40755 1-39) (peptide)”, for which the local ventricular effective refractory period (ERP) at graft site after MTx, one rat (170 ms before MTx) is 100 ms.

These data come from patent US20050008628A1.
